Results as given in paper PMC2760576.

Columns and labels:
[1] = target: integrin α6β1 (human (endogenous in FHCC98 and SMMC-7721)) (UniProt P05556)
[2] = target: integrin α6β1 (human (endogenous in FHCC98 and SMMC-7721)) (UniProt P05556); remark: listed apart in the source
[3] = target: integrin α6β1 (human (endogenous in FHCC98 and SMMC-7721)) (UniProt P05556); remark: listed apart in the source
[4] = target: integrin α6β1 (human (endogenous in FHCC98 and SMMC-7721)) (UniProt P05556); remark: listed apart in the source

UniProt P05556, sequence (P05556 whole entry, looked up): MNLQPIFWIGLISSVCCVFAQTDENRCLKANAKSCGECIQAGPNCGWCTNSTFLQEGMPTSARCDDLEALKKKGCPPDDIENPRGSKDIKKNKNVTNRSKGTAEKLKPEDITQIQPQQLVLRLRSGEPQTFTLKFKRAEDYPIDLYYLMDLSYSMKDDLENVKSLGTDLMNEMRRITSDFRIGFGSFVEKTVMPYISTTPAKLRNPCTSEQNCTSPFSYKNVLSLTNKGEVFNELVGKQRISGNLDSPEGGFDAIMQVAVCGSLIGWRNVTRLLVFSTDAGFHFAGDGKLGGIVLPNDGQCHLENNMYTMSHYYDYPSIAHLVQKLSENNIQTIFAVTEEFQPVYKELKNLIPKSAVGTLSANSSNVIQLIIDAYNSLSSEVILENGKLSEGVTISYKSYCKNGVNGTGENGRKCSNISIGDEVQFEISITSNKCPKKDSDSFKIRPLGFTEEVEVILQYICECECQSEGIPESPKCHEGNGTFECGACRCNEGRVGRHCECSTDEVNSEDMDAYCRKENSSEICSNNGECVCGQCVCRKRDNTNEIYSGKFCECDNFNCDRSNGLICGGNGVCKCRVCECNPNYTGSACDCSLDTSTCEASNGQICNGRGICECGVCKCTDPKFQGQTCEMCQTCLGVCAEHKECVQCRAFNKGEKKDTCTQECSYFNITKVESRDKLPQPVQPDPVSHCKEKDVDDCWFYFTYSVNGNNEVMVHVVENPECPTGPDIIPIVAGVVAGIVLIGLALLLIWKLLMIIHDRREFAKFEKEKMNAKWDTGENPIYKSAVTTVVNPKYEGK

Substance: HAb18G/CD147 (from UniProt P35613 22-385) (natural protein)
- gelatin zymography, reduction of MMP density of 7721 cells versus the blank control group; anti-α6 mAb [1]: 22.8%
- gelatin zymography, reduction of the density of MMPs of FHCC98 cells versus the blank control group; anti-α6 mAb [1]: 18.8%
- Matrigel invasion of 7721 cells, reduction of invasive cell numbers versus the blank control group; anti-α6 mAb [2]: 27.2%
- Matrigel invasion of FHCC98 cells, reduction of invasive cell numbers versus the blank group; sncRNA + GoH3 + 3S3 [3]: 34.9%
- Matrigel invasion of FHCC98 cells, reduction of invasive cell numbers versus the blank group; sncRNA + anti-α6 mAb GoH3 [3]: 32.4%
- Matrigel invasion of FHCC98 cells, reduction of invasive cell numbers versus the blank group; sncRNA + anti-β1 mAb 3S3 [3]: 31.1%
- gelatin zymography, reduction of the density of MMPs of FHCC98 cells versus the blank group; sncRNA + GoH3 + 3S3 [4]: 29.1%
- gelatin zymography, reduction of the density of MMPs of FHCC98 cells versus the blank group; sncRNA + anti-α6 mAb GoH3 [4]: 32.5%
- gelatin zymography, reduction of the density of MMPs of FHCC98 cells versus the blank group; sncRNA + anti-β1 mAb 3S3 [4]: 34.8%
